Consider 1 molecule from patent US20150104459A1.

This test addresses recombinant soluble homotrimeric HA of A/common magpie/Hong Kong/5052/07 (H5N1) (Influenza A virus A/common magpie/Hong Kong/5052/2007 (H5N1)). In words: HA microarray, control mAb. As to conditions: remark: other sources report otherwise.

B1: TCN-504 (3251_K17) (antibody, V domains shown)
VH: QVQLQESGPGLVKPSETLSLTCAVSGVSISNIDFYWGWIRQPPGKGLEWIGNIYYTGITFYNPSLSSRVAISIDTSKNQFSLTLTSVTAADTAMYYCARHYGDSEAINDAFDIWGQGTMLTVSS
VL: EIVMTQSPATLSVSPGERATLSCRASQSVGNSLAWYQQRPGQAPRLLIYGASTRATGIPPRFSGSGSGTEFTLTISSLQTEDFAVYYCQQYINWRPLSFGGGTKVEIK
In the case of B1, the Trimeric HA Binding RLU was 17000 RLU.
